The values below come from patent US20070172906A1 (BIOSITE, published 2007).

This test concerns the target T1, Human latent protein C (Enzyme Research Labs, Catalog # HPC 1001) (human, UniProt P04070 43-197; P04070 200-461).
T1 construct: Bought protein; It was biotinylated for panning and ELISA
Description: method not stated.

T1 sequence (P04070 43-197, form in doubt, chain 1 of 2): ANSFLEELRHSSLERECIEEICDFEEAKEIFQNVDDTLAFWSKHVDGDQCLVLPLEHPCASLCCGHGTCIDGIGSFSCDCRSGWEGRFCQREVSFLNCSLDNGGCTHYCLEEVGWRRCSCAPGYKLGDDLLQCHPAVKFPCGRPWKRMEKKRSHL
T1 sequence (P04070 200-461, form in doubt, chain 2 of 2): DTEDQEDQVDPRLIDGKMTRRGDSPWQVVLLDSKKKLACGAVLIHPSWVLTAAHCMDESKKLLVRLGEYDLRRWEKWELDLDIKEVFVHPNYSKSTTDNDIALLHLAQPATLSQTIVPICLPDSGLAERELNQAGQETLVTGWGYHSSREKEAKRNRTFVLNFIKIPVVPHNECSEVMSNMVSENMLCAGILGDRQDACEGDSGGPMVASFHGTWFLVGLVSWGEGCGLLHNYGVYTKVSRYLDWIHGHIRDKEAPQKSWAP

B1: Z3XM01011 (antibody, V domains shown)
VH: EVQLQQSGPGLVEPSQSLSITCTVSGFSLRSYGVHWVRQSPRKGLEWLGGIWSGGRIDYNAAYISRLTINKDNSKSQVFFKMNSLQADDTAIYYCVRKAIDLGDYYGMDYWGQGTSVTVSS
VL: DIVMTQFSQILSTSVGDRVSITCKASQDVGTAVAWYQQKPGQSPKLLIYWASTRHTGVPGRFTGSGSGTDFTLTIISVQSEDLADYFCQQYSSYPTFGGGTKLEIK
notes: Mouse monoclonal antibody from the same Fab phage library after one more round of panning, subcloned into a pBR322 expression vector
B1 showed a Ka not below 1e+10 M⁻¹.

B2: Z1XM01701 (antibody, V domains shown)
VH: EVMLVESGGGLVKPGGSLKLSCAASGFTFSNYAMSWVRQTPAKRLEWVATISGGGGNTYYPDSVKGRFTISRDNAKNTLYLQMSSLRSEDTALYYCARHPNRFETAVDYWGQGTSVIVSS
VL: QIVLTQSPAILSASPGEKVTMTCRASSSVSSVHWYQQKPGSSPKPWIYATSNLASGVPTRFSGGGSGTSYSLTISRVEAEDAATYSCQQWSSDPPTFGGGTKLEIK
notes: It was subcloned into a pBR322 expression vector, expressed, purified and biotinylated; also called SE61z1zm-01071
In turn, B2 had a Ka not below 1e+10 M⁻¹.
